Drawing on US20030162712A1, this text covers Percent Inhibition of Antibody Binding by Ang2 for one substance.

The assay concerns the target naturally occurring Tek as expressed on human endothelial cells (human) (UniProt Q02763). Briefly: flow cytometry on HMVEC-d, mAb 5 µg/ml, competitor human Ang2 10 µg/ml; negative control antibody. On the technique in general: Flow cytometry measures light scatter and fluorescence of single cells or particles in a stream.
Sequence of UniProt Q02763 (Q02763 23-1124): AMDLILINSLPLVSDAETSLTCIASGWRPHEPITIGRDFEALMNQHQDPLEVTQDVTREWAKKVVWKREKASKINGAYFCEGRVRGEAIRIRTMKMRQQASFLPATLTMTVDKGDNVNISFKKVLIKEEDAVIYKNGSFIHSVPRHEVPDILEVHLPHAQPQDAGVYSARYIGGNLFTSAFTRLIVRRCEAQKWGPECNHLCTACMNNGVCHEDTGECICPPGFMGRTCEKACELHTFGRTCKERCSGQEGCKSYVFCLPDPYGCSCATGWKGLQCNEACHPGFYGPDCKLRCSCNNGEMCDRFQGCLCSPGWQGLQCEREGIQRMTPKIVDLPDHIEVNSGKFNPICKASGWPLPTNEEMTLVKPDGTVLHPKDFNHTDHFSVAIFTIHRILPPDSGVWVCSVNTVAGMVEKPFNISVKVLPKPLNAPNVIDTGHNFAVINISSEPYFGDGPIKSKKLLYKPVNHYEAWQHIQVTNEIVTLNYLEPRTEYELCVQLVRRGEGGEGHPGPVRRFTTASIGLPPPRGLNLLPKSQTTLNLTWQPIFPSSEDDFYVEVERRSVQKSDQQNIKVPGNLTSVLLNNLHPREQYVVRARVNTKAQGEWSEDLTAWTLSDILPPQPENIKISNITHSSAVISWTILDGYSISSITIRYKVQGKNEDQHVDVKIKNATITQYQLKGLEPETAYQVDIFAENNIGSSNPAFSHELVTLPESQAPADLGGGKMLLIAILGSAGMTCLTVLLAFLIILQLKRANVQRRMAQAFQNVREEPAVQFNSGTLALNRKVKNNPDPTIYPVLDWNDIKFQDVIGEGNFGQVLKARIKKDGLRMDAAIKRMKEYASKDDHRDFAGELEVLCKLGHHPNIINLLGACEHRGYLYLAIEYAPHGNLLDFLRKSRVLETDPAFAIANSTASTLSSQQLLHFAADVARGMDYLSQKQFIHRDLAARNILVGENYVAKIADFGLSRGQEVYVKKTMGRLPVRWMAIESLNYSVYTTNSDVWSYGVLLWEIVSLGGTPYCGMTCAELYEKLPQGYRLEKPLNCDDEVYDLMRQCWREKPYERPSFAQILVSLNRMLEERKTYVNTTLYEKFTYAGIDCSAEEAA

With “IgG1 negative control mAb (MOPC21) (antibody)”, the Percent Inhibition of Antibody Binding by Ang2 is 0%.
